Measured values reported in patent publication US20090226442A1 (published 2009).
Residue numbers refer to the chain shown, from its start. Like-named read-outs stand apart in the source and are kept apart here.

T1: soluble cynomolgus (Macaca fascicularis) RON protein (cynomolgus (Macaca fascicularis), UniProt A0A2K5VT07 25-571)
T1 chain: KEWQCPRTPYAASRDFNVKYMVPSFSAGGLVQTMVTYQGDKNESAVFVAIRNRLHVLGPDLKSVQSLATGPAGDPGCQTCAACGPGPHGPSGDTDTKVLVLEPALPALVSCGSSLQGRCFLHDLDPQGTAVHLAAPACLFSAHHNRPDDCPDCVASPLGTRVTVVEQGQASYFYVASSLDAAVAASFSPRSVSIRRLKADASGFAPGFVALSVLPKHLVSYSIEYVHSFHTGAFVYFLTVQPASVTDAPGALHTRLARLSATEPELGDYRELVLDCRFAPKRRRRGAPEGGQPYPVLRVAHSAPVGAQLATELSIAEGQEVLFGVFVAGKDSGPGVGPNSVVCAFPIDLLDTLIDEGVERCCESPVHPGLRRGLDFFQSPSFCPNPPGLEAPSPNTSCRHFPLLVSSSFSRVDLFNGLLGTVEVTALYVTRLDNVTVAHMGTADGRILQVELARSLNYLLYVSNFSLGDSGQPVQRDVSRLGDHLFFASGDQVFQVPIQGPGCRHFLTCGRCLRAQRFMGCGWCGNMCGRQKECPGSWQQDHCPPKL

B1: human macrophage stimulating protein (MSP) (R&D Systems cat. #4306-MS) (ligand)
chain: QRSPLNDFQVLRGTELQHLLHAVVPGPWQEDVADAEECAGRCGPLMDCRAFHYNVSSHGCQLLPWTQHSPHTRLRRSGRCDLFQKKDYVRTCIMNNGVGYRGTMATTVGGLPCQAWSHKFPNDHKYTPTLRNGLEENFCRNPDGDPGGPWCYTTDPAVRFQSCGIKSCREAACVWCNGEEYRGAVDRTESGRECQRWDLQHPHQHPFEPGKFLDQGLDDNYCRNPDGSERPWCYTTDPQIEREFCDLPRCGSEAQPRQEATTVSCFRGKGEGYRGTANTTTAGVPCQRWDAQIPHQHRFTPEKYACKDLRENFCRNPDGSEAPWCFTLRPGMRAAFCYQIRRCTDDVRPQDCYHGAGEQYRGTVSKTRKGVQCQRWSAETPHKPQFTFTSEPHAQLEENFCRNPDGDSHGPWCYTMDPRTPFDYCALRRCADDQPPSILDPPDQVQFEKCGKRVDRLDQRRSKLRVVGGHPGNSPWTVSLRNRQGQHFCGGSLVKEQWILTARQCFSSCHMPLTGYEVWLGTLFQNPQHGEPSLQRVPVAKMVCGPSGSQLVLLKLERSVTLNQRVALICLPPEWYVVPPGTKCEIAGWGETKGTGNDTVLNVALLNVISNQECNIKHRGRVRESEMCTEGLLAPVGACEGDYGGPLACFTHNCWVLEGIIIPNRVCARSRWPAVFTRVSVFVDWIHKVMRLG
B2: 1P2E7 murine monoclonal anti-RON antibody (antibody, V domains shown)
VH: DVQLQESGPGLVKPSQSLSLTCTVTGDSITSDYAWNWIRQFPGNKLEWMGYISYSGSTSYNPSLKSRFSITRDTSKNQFFLQLNSVTTEDSATYYCARGGFYYRYAGPGFAYWGQGTLVTVSA
VL: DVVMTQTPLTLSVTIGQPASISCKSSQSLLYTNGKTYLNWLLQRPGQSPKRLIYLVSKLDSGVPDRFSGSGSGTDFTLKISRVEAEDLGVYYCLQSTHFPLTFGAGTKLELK
B3: 1P3B2 murine monoclonal anti-RON antibody (antibody, V domains shown)
VH: EVQLQQSGPELEKPGASVKISCKASGYSFTGYNMNWVKQSNGESLEWIGDIDPYYGGTRYNQKFKGKATLTVDKSSSTAYMQLKSLTSEDSAVYYCAREGRGFAYWGQGTLVTVSA
VL: DIQMTQSPASLSASVGETVTITCRASENIYSYLAWYQKKQGKSPQLLVYNAKTSVEGVPSRFSGSGSGIQFSLKINSLQPEDFGSYYCHCQHHYGTLPTFGGGTKLEIK
B4: 1P4A3 murine monoclonal anti-RON antibody (antibody, V domains shown)
VH: B3 VH with K19M, N41T, E43K, G56D, V72A, A97T
VL: DIQMTQSPASLSASVGETVTITCRASENIYSYLAWYQQKQGKSPQLLVYNAKTLAGGVPSRFSGSGSGTQFSLKINSLQPEDFGSYYCQHYYGTPLTFGAGTKLELK
B5: 1P5B10 murine monoclonal anti-RON antibody (antibody, V domains shown)
VH: EVQLQQSGPELVKPGASMKISCRAAGFSFTGYTMNWVKQSHGKSLEWIGLINLNNGGTSHNQKFKGKATLTVDKSSSTAYMELLSLTSEDSAVYYCARWLRRGGYAMDYWGQGISVTVSS
VL: DILLTQSPAILSVSPGERVSFSCRASQNIGTSIHWYQQRTNGSPRLLIKYASESISGIPSRFSGSGSGTDFTLSINSVESEDIADYYCQQSDSWPLTFGAGTKLELK
B6: 1P4A12 murine monoclonal anti-RON antibody (antibody, V domains shown)
VH: B5 VH with R23K, A25S, F27Y, S44K, L53P, N54Y, S59I, H60Y, I114A
VL: B5 VL with N28S, Y50F, L106V

Assays:
[1] = target: T2, soluble human RON protein (R&D Systems, catalog 1947) (UniProt Q04912 25-571); assay: ELISA; 4-P fit C
T2 sequence (Q04912 25-571): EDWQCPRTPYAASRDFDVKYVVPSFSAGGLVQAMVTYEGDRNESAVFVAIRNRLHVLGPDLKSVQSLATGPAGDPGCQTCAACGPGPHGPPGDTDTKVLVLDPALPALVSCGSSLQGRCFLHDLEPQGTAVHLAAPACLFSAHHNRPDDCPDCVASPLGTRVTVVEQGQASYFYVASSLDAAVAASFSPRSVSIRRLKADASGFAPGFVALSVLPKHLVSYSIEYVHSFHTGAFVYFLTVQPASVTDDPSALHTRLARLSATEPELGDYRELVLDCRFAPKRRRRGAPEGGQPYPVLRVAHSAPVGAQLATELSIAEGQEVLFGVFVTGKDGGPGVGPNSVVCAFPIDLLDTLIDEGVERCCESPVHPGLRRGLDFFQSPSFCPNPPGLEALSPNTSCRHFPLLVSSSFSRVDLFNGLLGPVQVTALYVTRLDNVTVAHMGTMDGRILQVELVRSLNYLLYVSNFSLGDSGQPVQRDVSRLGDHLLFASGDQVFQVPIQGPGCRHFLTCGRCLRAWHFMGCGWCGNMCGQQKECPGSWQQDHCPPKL

[2] = target: T1, soluble cynomolgus (Macaca …); assay: ELISA; 4-P fit C
[3] = target: human RON (recepteur d'origine nantais, MST1R), full length, expressed on cells (UniProt Q04912 25-1400); assay: FACS
Sequence of human RON (recepteur d'origine nantais, MST1R), full length, expressed on cells (Q04912 25-1400): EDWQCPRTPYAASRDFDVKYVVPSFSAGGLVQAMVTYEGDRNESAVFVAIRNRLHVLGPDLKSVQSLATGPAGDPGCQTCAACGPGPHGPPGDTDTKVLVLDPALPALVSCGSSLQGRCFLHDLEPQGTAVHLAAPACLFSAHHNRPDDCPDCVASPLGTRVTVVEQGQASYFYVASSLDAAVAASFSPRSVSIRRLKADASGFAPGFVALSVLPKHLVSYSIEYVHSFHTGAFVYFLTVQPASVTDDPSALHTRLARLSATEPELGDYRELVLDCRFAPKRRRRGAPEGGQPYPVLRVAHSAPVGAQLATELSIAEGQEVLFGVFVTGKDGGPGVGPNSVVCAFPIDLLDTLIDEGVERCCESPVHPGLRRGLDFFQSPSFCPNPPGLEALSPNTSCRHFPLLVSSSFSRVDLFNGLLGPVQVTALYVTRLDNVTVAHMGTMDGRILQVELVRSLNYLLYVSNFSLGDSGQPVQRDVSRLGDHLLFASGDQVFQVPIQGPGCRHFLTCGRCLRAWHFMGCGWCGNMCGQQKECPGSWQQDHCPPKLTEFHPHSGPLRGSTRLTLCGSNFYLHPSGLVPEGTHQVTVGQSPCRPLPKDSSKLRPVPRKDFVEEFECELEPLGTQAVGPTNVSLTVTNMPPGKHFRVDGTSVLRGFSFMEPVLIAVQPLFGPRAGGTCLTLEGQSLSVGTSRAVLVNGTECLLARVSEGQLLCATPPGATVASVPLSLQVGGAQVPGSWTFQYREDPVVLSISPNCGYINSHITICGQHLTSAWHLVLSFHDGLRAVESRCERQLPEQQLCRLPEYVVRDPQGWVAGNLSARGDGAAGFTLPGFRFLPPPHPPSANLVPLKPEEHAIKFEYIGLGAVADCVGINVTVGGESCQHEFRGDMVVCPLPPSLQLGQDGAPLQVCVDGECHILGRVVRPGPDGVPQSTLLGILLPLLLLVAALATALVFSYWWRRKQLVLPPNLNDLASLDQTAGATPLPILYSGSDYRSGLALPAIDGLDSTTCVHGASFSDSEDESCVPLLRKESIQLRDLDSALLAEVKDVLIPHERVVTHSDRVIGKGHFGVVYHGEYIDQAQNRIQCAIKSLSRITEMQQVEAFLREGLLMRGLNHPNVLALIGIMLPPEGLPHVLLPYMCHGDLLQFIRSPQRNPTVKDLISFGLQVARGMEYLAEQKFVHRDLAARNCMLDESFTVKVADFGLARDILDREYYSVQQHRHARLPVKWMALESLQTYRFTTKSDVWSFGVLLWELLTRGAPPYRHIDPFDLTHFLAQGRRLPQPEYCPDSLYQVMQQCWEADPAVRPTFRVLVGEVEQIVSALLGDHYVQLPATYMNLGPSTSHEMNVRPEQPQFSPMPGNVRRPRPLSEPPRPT

[4] = target: T2, soluble human RON protein (R&D Systems, …); assay: ELISA
[5] = target: T2, soluble human RON protein (R&D Systems, …); assay: ELISA; 4-P fit C; remark: listed apart in the source
[6] = target: T1, soluble cynomolgus (Macaca …); assay: ELISA; 4-P fit C

Row | Binder | EC50 [1] | EC50 [2] | EC50 [3] | EC50 [4] | EC50 [5] | EC50 [6]
1 | B1 | 0.03 µg/mL | 0.038 µg/mL | – | – | – | –
2 | B2 | – | – | 0.013 µg/mL | 0.018 µg/mL | 0.000736 µg/mL | 0.002 µg/mL
3 | B3 | – | – | 0.006 µg/mL | 0.011 µg/mL | – | 0.01 µg/mL
4 | B4 | – | – | 0.011 µg/mL | 0.018 µg/mL | 0.003 µg/mL | 0.003 µg/mL
5 | B5 | – | – | 0.051 µg/mL | 0.013 µg/mL | 0.001 µg/mL | 0.002 µg/mL
6 | B6 | – | – | 0.01 µg/mL | 0.016 µg/mL | 0.002 µg/mL | 0.005 µg/mL
